We go through 2 molecules from patent US20060165683A1, “Methods and compositions for control of bone formation via modulation of sympathetic tone” (priority 2001, published 2006).

Series [1] has as its system murine primary osteoblasts. As to the kind of experiment: cAMP production in murine primary osteoblasts. The following applies: confluent cultures, 100 μM IBMX, 5 min treatment; PTH as positive control. The series is classed as cell-based, mouse. The procedure: Primary osteoblast cultures were established as previously described (see, e.g., Ducy et al., 2000, Cell 100: 197-207) and maintained in αMEM/0.1 mg/ml ascorbic acid supplemented with 10% FBS. SaOS-2 were grown in MEM/10% FBS. For cAMP assay confluent cultures were incubated with serum free medium containing 100 μM IBMX (3-isobutyl-1-methylxanthine, Sigma) for 8 minutes before PBS, PTH(1-34) (Bachem), isoproterenol, norepinephrine, phenylephrine (Sigma) or propranolol were added for 5 min. Intracellular cAMP concentration was measured by immunoassay (R&D Systems). For gene expression analyses, primary osteoblasts were treated for 72 hours with appropriate drugs in 0.1% FBS. Hormone serum levels were quantified using immunoassays kits from Peninsula Laboratories (Insulin) or Alpco Diagnostics (leptin). Deoxypyridinoline cross-links and Creatinine were measured in morning urines using the Quidel kits. a1(I) leptin bioactivity was verified by cotransfection of 293 cells expressing ObRb with a STAT3-responsive-luc reporter construct, pSVβgal plasmid and a1(I) leptin expression vector or mock. Twenty-four hours later luciferase and β-galactosidase activities were measured. Data represents ratios of luciferase/β-galactosidase activities, and values are mean of 6 independent transfection experiments.
For a sympathetic regulation of bone formation to exist several requirements have to be fulfilled. The first one is that functional adrenergic receptors are present on osteoblasts. […] Immunohistochemical analysis of long bones from transgenic mice expressing LacZ under the control of the osteoblast-specific fragment of the a1(I) collagen promoter verified the presence of β2-adrenergic receptors on osteoblasts (FIG. 13B). No other adrenergic receptor subtype could be detected. […] Electron micrographs confirmed the presence of unmyelinated peripheral nerve axons coursing through the marrow adjacent to bone trabeculae and to osteoblasts (FIG. 13E). β-adrenergic receptors are G-coupled receptors that signal through the cAMP pathway (see, e.g., Benovic et al., 1988, Annu Rev Cell Biol 4:405-428). Thus, to assess the biologic relevance of the presence of β2-adrenergic receptors on osteoblasts, these cells were treated with isoproterenol, a β-adrenergic agonist, alone or in the presence of propranolol, a β-adrenergic receptor antagonist; with norepinephrine, the natural ligand of β-adrenergic receptors; with phenylephrine, an α-adrenergic agonist or with vehicle and measured cAMP production. As a positive control, parathyroid hormone (PTH) that binds to another G-coupled receptor present in osteoblasts was used (Gardella & Juppner, 2001, Trends Endocrinol Metab 12:210-217.). […] These effects were abolished by propranolol treatment. […]
Background: Cyclic AMP is a second messenger, typically raised through Gs and lowered through Gi signalling.

The next series relates to MSG-lesioned ob/ob mice. Put plainly: Leptin ICV infusion in MSG-lesioned ob/ob mice. The series is classed as in vivo, mouse. The procedure: (§1) Wildtype (C57BL/6J) and mutant (C57BL/6J A^y/a, C57BL/6J ob/ob) mice were obtained from the Jackson laboratory and adrenal medullectomized mice from Harlan Tecklad laboratory. Dbh−/− mice were rescued as previously described (Thomas et al., 1998, Neurochem 70:2468-2476). Isoproterenol (Sigma) was injected intraperitoneally (ip) once daily for 6 weeks at 30 mg/kg (wt) or 3 mg/kg (ob/ob). Propranolol (Sigma) was added to the drinking water at a concentration of 0.5 g/l. For ICV infusion, a 28-gauge cannula (Brain infusion kit II, Alza) was implanted into the third ventricle as previously described infusing human leptin (Sigma) at 8 ng/hr or MT-II at 125 ng/hr (Phoenix Pharmaceuticals) for 28 days (see, e.g., Ducy et al., 2000, Cell 100: 197-207). The cannula was connected to an osmotic pump (Alza) placed in the dorsal subcutaneous space of the animal. For parabiosis longitudinal incisions were made in the skin and in the peritoneal cavity along one side on each mouse. Edges of the incisions were connected by suture to induce coelioanastomosis. Cross-circulation was quantified by injecting 1 ml/kg 0.25% Evans blue into the tail vein of one mouse of the parabiosed pair. After 30 min. blood was collected from both mice by retroorbital bleeding and the blood exchange rate was calculated according to standard techniques (see, e.g., Harris & Martin, 1984, Am J Physiol 247:R380-386). […]

Another series deals with GTG-treated ob/ob mice. As to the kind of experiment: Leptin ICV infusion in GTG-treated ob/ob mice. In kind it is in vivo, mouse. The procedure:
as §1

The next series deals with parabiosed ob/ob mice. As to the kind of experiment: Cross circulation (parabiosis) between ob/ob mice with leptin ICV in one mouse of each pair. The series is classed as in vivo. The text has this:
Cross Circulation (Parabiosis) Procedure. Following anesthesia by standard procedures, the surgery is made under adequate anesthesia and aseptic techniques. A longitudinal incision is made along one side on each mouse and skin is loosened from connective tissue. The ventral edges of the incision are joined by suture. Abdominal cavity of each mouse is opened and connected to make coelio anastomosis. Finally, the dorsal edges of the skin incision are joined. Parabiosed mice are housed in separate cages subsequently. Mice used for this procedure are syngenic to avoid immune reactions. Bone histology and histomorphometry are performed at the end of the treatment period to determine bone mass.
To determine whether the signal(s) emanating from the brain and controlling bone formation was/were of humoral nature, cross circulation (parabiosis) experiments were performed between ob/ob mice. Four weeks after establishing and verifying the cross circulation, a pump delivering leptin ICV (8 ng/h) was installed in one mouse of each parabiosed pair. […] Body weight and bone histology of the ipsilateral and contralateral mouse of each pair was analyzed four weeks later, reasoning that if leptin was using humoral means to control body weight and bone mass, both mice in each pair should respond equally well to the leptin infusion.
Wildtype (C57BL/6J) and mutant (C57BL/6J A^y/a, C57BL/6J ob/ob) mice were obtained from the Jackson laboratory and adrenal medullectomized mice from Harlan Tecklad laboratory. Dbh−/− mice were rescued as previously described (Thomas et al., 1998, Neurochem 70:2468-2476). Isoproterenol (Sigma) was injected intraperitoneally (ip) once daily for 6 weeks at 30 mg/kg (wt) or 3 mg/kg (ob/ob). Propranolol (Sigma) was added to the drinking water at a concentration of 0.5 g/l. For ICV infusion, a 28-gauge cannula (Brain infusion kit II, Alza) was implanted into the third ventricle as previously described infusing human leptin (Sigma) at 8 ng/hr or MT-II at 125 ng/hr (Phoenix Pharmaceuticals) for 28 days (see, e.g., Ducy et al., 2000, Cell 100: 197-207). The cannula was connected to an osmotic pump (Alza) placed in the dorsal subcutaneous space of the animal. For parabiosis longitudinal incisions were made in the skin and in the peritoneal cavity along one side on each mouse. Edges of the incisions were connected by suture to induce coelioanastomosis. Cross-circulation was quantified by injecting 1 ml/kg 0.25% Evans blue into the tail vein of one mouse of the parabiosed pair. After 30 min. blood was collected from both mice by retroorbital bleeding and the blood exchange rate was calculated according to standard techniques (see, e.g., Harris & Martin, 1984, Am J Physiol 247:R380-386). […] Two weeks after parabiosis a pump delivering leptin ICV in one animal of each pair was implanted. For GTG lesioning, 4-week-old C57BL/6J mice were given a single ip injection of either PBS or GTG (0.5 mg/g). For MSG lesioning, 2 day-old C57BL/6J pups were injected daily subcutaneously with either PBS or MSG (2 mg/g) for 10 days.
The next question was whether the signal(s) emanating from the hypothalamic antiosteogenic network was/were of humoral or of neuronal nature. To that end, cross-circulation (parabiosis) experiments between ob/ob animals (that have no circulating leptin) were relied upon. […] Four weeks later the animals were sacrificed and analyzed.

Setting [2] is: contralateral parabiosed partner.
Where [3] appears, read: ipsilateral mouse, 8 ng/h, four weeks.

“Also recorded” adds a separate entry of the source.

Regarding `CC(C)NCC(O)c1ccc(O)c(O)c1` (stereo not shown) [isoproterenol], the cAMP production result in series [1] is recorded as “increased”.

B1: leptin: polypeptide hormone, product of the ob gene; human leptin (Sigma) infused ICV (protein)
chain: VPIQKVQDDTKTLIKTIVTRINDISHTQSVSAKQRVTGLDFIPGLHPILSLSKMDQTLAVYQQVLTSLPSQNVLQIANDLENLRDLLHLLAFSKSCSLPQTSGLQKPESLDGVLEASLYSTEVVALSRLQGSLQDILQQLDVSPEC
As to B1, in the series on MSG-lesioned ob/ob mice, the Bone Volume result is on record as “decreases” and the body weight entry is on record as “does not affect”. For the same molecule, in the series with GTG-treated ob/ob mice, the body weight result is “decreased” and the bone mass entry is “failed to decrease”. For the same molecule, in the series on parabiosed ob/ob mice (setting [2]), the “body weight loss in the contralateral mouse” value is recorded as “never observed” and the “bone mass / bone volume of the contralateral mouse” value is “never observed; also recorded: no modification”. Moreover, in the series with parabiosed ob/ob mice (setting [3]), the “body weight of the ob/ob mouse receiving leptin ICV” value is on record as “dropped considerably” and the “bone mass / bone volume of the ob/ob mouse receiving leptin ICV” value is reported as “dropped considerably; also recorded: dropped significantly”. Also, the “leptin in plasma / serum (leakage into the general circulation)” value in the series on parabiosed ob/ob mice (parabiosed ob/ob mice after ICV infusion) was “absence of measurable leptin”.
